Data on one protein can be found in article PMC2710002, “KCNE1 and KCNE3 β-Subunits Regulate Membrane Surface Expression of Kv12.2 K^+ Channels In Vitro and Form a Tripartite Complex In Vivo” (PLoS ONE, 2009).

A word on the stoichiometry N: it is the number of molecules, sites or subunits per partner or assembly.

This data set concerns the molecule itself. Description: native gel or EMSA; blue native PAGE (4-16% NativePAGE Novex Bis-Tris, G-250, pH 7, 4°C) of proteins immunoprecipitated from digitonin lysate of mouse brain; blot with anti-Kv12.2; size of the Kv12.2 complex.

B1: Kv12.2 channel (natural protein, mouse (endogenous in mouse brain), UniProt Q9WVJ0 1-1095, looked up)
chain: MPAMRGLLAPQNTFLDTIATRFDGTHSNFVLGNAQVAGLFPVVYCSDGFCDLTGFSRAEVMQRGCACSFLYGPDTSELVRQQIRKALDEHKEFKAELILYRKSGLPFWCLLDVIPIKNEKGEVALFLVSHKDISETKNRGGPDNWKERGGGRRRYGRAGSKGFNANRRRSRAVLYHLSGHLQKQPKGKHKLNKGVFGEKPNLPEYKVAAIRKSPFILLHCGALRATWDGFILLATLYVAVTVPYSVCVSTAREPSAARGPPSVCDLAVEVLFILDIVLNFRTTFVSKSGQVVFAPKSICLHYVTTWFLLDVIAALPFDLLHAFKVNVYVGAHLLKTVRLLRLLRLLPRLDRYSQYSAVVLTLLMAVFALLAHWVACVWFYIGQQEIESSESELPEIGWLQELARRLETPYYLVSRSPDGGNSSGQSENCSSSSSSSGSGGGRGSEANGTGLELLGGPSLRSAYITSLYFALSSLTSVGFGNVSANTDTEKIFSICTMLIGALMHAVVFGNVTAIIQRMYARRFLYHSRTRDLRDYIRIHRIPKPLKQRMLEYFQATWAVNNGIDTTELLQSLPDELRADIAMHLHKEVLQLPLFEAASRGCLRALSLALRPAFCTPGEYLIHQGDALQALYFVCSGSMEVLKGGTVLAILGKGDLIGCELPQREQVVKANADVKGLTYCVLQCLQLAGLHESLALYPEFAPRFSRGLRGELSYNLGAGGVSAEVDTSSLSGDNTLMSTLEEKETDGEQGHTVSPAPADEPSSPLLSPGCTSSSSAAKLLSPRRTAPRPRLGGRGRPSRAGVLKPEAGPSAHPRSLDGLQLPPMPWNVPPDLSPRVVDGIEDGCSSDQPKFSFRVGQSGPECSSSPSPGTESGLLTVPLGPSEARNTDTLDKLRQAVMELSEQVLQMREGLQSLRQAVQLILVPQGEGQCPRGSGEEPCPATASGLLQPLRVDTGASSYCLQPPAGSVLSGTWPHPRPGQPPPLMAPWPWGPPASQSSPWPRATALWTSTSDSEPPGSGDLCSEPSTPASPPPSEEGARTGTPAPVSQAEATSTGEPPPGPGGRALPWDPHSLEMVLIGCHGPGTVQWTQEEGTGV
notes: Kv12.2 (ELK2, KCNH3) voltage-gated potassium channel alpha subunit, mouse, endogenous in brain; about 120 kDa monomer on a denaturing gel, about 500 kDa complex on a native gel; also called ELK2; KCNH3; source: endogenous, mouse brain membrane lysate (0.5% Igepal) or whole mouse brain lysate (1% digitonin)
Turning to B1, the “stoichiometry N” value stood at 4.
